± gives the uncertainty stated by the source.
B1: Endonuclease CUE2, residues 9 to 47; numbered along this chain, P36075 (parent)
chain: HESKLSILMDMFPAISKSKLQVHLLENNNDLDLTIGLLL
B2: Telomeric repeat-binding factor 2, residues 489 to 542; numbered along this chain, Q15554 (parent)
chain: KQKWTVEESEWVKAGVQKYGEGNWAAISKNYPFVNRTAVMIKDRWRTMKRLGMN

Variants of: B1
Assay: abundance fitness (aPCA) (normalised: wild type 0, dead -1); higher = more abundant; growth selection in yeast, the domain comes from the species named
Settings: Saccharomyces cerevisiae (strain ATCC 204508 / S288c)

Row | Variant | abundance fitness
1 | H1M | 0.255 ± 0.09
2 | H1G | 0.237 ± 0.037
3 | H1T | 0.467 ± 0.062
4 | H1K | 0.312 ± 0.062
5 | H1V | 0.28 ± 0.045
6 | H1S | 0.174 ± 0.06
7 | H1W | 0.05 ± 0.039
8 | H1A | 0.264 ± 0.093
9 | H1C | 0.351 ± 0.12
10 | H1D | 0.064 ± 0.36
11 | H1E | 0.361 ± 0.043
12 | H1L | 0.377 ± 0.045
13 | H1R | 0.284 ± 0.035

Variants of: B2
Assay: as above
Settings: Homo sapiens

Row | Variant | abundance fitness
14 | L51D | -0.259 ± 0.13
15 | L51H | 0.031 ± 0.4
16 | L51Y | -0.063 ± 0.12
17 | L51S | -0.025 ± 0.054
18 | L51T | 0.101 ± 0.09
19 | L51C | -0.171 ± 0.096
20 | L51Q | 0.036 ± 0.064
21 | L51F | -0.355 ± 0.16
22 | L51V | 0.006 ± 0.05
23 | L51E | 0.283 ± 0.075
24 | L51I | -0.241 ± 0.13
25 | L51G | -0.035 ± 0.052
26 | L51W | -0.05 ± 0.073
27 | L51P | -0.394 ± 0.063
28 | L51M | -0.051 ± 0.065
29 | L51A | -0.043 ± 0.08
30 | M53T | -0.249 ± 0.16
31 | M53D | 0.349 ± 0.093
32 | M53P | -0.147 ± 0.15
33 | M53K | -0.269 ± 0.19
34 | M53R | -0.311 ± 0.072
35 | M53S | -0.145 ± 0.1
36 | M53Q | -0.099 ± 0.099
37 | M53L | 0.026 ± 0.079
38 | M53E | 0.01 ± 0.095
39 | M53H | -0.249 ± 0.3

Row | Variant | abundance fitness
40 | M53A | -0.134 ± 0.068
41 | M53V | -0.184 ± 0.07
42 | M53W | -0.329 ± 0.088
43 | M53I | -0.141 ± 0.12
44 | M53G | -0.007 ± 0.058
45 | M53Y | -0.686 ± 0.31
46 | M48P | -0.886 ± 0.069
47 | M48G | -1.02 ± 0.1
48 | M48Y | -0.696 ± 0.24
49 | M48V | -0.463 ± 0.077
50 | M48Q | -0.64 ± 0.15
51 | M48K | -0.978 ± 0.44
52 | M48S | -0.95 ± 0.2
53 | M48R | -1 ± 0.16
54 | M48T | -0.635 ± 0.16
55 | M48A | -0.821 ± 0.17
56 | M48I | -0.395 ± 0.092
57 | M48N | -0.376 ± 0.099
58 | M48D | -0.507 ± 0.28
59 | M48C | -0.912 ± 0.28
60 | M48E | -0.674 ± 0.24
61 | M48W | -0.359 ± 0.12
62 | M48F | -0.688 ± 0.34
63 | M48L | -0.177 ± 0.048
64 | N54H | 0.092 ± 0.37
65 | N54F | -0.537 ± 0.28

Row | Variant | abundance fitness
66 | N54S | -0.051 ± 0.13
67 | N54V | -0.075 ± 0.092
68 | N54I | -0.032 ± 0.12
69 | N54Y | -0.399 ± 0.16
70 | N54T | 0.544 ± 0.12
71 | N54G | 0.344 ± 0.14
72 | N54W | -0.166 ± 0.077
73 | N54D | -0.038 ± 0.22
74 | N54A | 0.246 ± 0.11
75 | K49Q | -0.054 ± 0.16
76 | K49N | -0.597 ± 0.16
77 | K49H | -0.462 ± 0.23
78 | K49E | -0.235 ± 0.054
79 | K49S | -0.286 ± 0.056
80 | K49I | -0.415 ± 0.16
81 | K49C | 0.116 ± 0.086
82 | K49G | -0.568 ± 0.073
83 | K49D | -0.507 ± 0.14
84 | K49P | -0.766 ± 0.2
85 | K49A | -0.29 ± 0.046
86 | K49M | -0.657 ± 0.19
87 | K49L | -0.302 ± 0.045
88 | K49F | -0.535 ± 0.14
89 | K49W | -0.334 ± 0.22
90 | K49T | -0.142 ± 0.045
91 | K49R | -0.358 ± 0.043

Row | Variant | abundance fitness
92 | R50H | -0.553 ± 0.21
93 | R50L | -0.252 ± 0.084
94 | R50T | -0.016 ± 0.046
95 | R50V | -0.07 ± 0.074
96 | R50P | -0.176 ± 0.11
97 | R50N | -0.054 ± 0.12
98 | R50K | 0.178 ± 0.11
99 | R50E | 0.052 ± 0.099
100 | R50M | 0.007 ± 0.16
101 | R50Q | -0.026 ± 0.043
102 | R50S | 0.068 ± 0.056
103 | R50A | 0.007 ± 0.052
104 | R50W | -0.253 ± 0.14
105 | R50I | 0.286 ± 0.09
106 | R50F | 0.076 ± 0.094
107 | R50Y | -0.456 ± 0.17
108 | T47V | -0.157 ± 0.074
109 | T47M | -0.18 ± 0.05
110 | T47Y | 0.015 ± 0.047
111 | T47S | -0.017 ± 0.079
112 | T47A | 0.059 ± 0.065
113 | T47D | 0.145 ± 0.12
114 | T47N | -0.281 ± 0.38
115 | T47P | -0.67 ± 0.19
116 | T47R | -0.204 ± 0.048
117 | T47E | 0.177 ± 0.071

Row | Variant | abundance fitness
118 | T47C | -0.083 ± 0.11
119 | T47W | -0.276 ± 0.065
120 | T47Q | 0.042 ± 0.12
121 | T47I | -0.094 ± 0.1
122 | T47F | -0.658 ± 0.2
123 | T47K | -0.05 ± 0.058
124 | W45Y | -0.318 ± 0.1
125 | W45T | -0.986 ± 0.19
126 | W45K | -1.09 ± 0.14
127 | W45R | -0.953 ± 0.16
128 | W45L | -0.815 ± 0.087
129 | W45S | -0.933 ± 0.18
130 | W45Q | -0.914 ± 0.094
131 | W45V | -0.866 ± 0.089
132 | R46S | 0.043 ± 0.06
133 | R46L | 0.054 ± 0.049
134 | R46P | -0.828 ± 0.41
135 | R46N | 0.047 ± 0.17
136 | R46W | -0.106 ± 0.039
137 | R46K | -0.007 ± 0.2
138 | R46I | 0.015 ± 0.12
139 | R46D | -0.195 ± 0.13
140 | R46T | 0.136 ± 0.084
141 | R46Y | 0.181 ± 0.072
142 | R46H | 0.011 ± 0.12
143 | R46C | -0.133 ± 0.076

Row | Variant | abundance fitness
144 | R46Q | -0.004 ± 0.12
145 | R46F | 0.073 ± 0.067
146 | R46A | 0.106 ± 0.069
147 | R46E | 0.204 ± 0.09
148 | R46V | 0.005 ± 0.039
149 | R46M | 0.325 ± 0.089
150 | G52H | -0.215 ± 0.13
151 | G52K | -0.149 ± 0.13
152 | G52V | 0.004 ± 0.076
153 | G52T | -0.1 ± 0.24
154 | G52Y | -0.485 ± 0.19
155 | G52S | -0.358 ± 0.086
156 | G52P | 0.243 ± 0.1
157 | G52N | 0.049 ± 0.12
158 | G52A | -0.304 ± 0.085
159 | G52I | -0.019 ± 0.065
160 | G52L | -0.195 ± 0.054
161 | G52D | -0.011 ± 0.13
162 | G52Q | -0.201 ± 0.11
163 | G52R | -0.119 ± 0.059
164 | G52C | -0.087 ± 0.061
165 | G52F | -0.223 ± 0.059
166 | G52W | -0.449 ± 0.11
167 | G52E | -0.071 ± 0.1

Source: the Human Domainome abundance scans (Beltran et al. 2025)
